Where “and” joins values, the source holds several entries; their conditions need not be identical. Equal entries are not always repeated.
Key:
[1] = system: Th2 cell population in human PBMC; assay: Th2 cell population in human PBMC culture (flow cytometry); format: cell-based; design: key: −: no inhibition; +: weak; ++: moderate; +++: strong inhibition; settings: IL-2 (10 unit/mL) and three alarmins (10 ng/ml), 5 days
Source text: (§1) While alarmins are known to work in concert to enhance ILC2 and Th2 cell functions such as increase in cell population, steroids such as Dexamethasone (Dex) can negate these effects, resulting in the mitigation of type 2 immune responses [Jia, Yi et al. American Journal Of Respiratory Cell And Molecular Biology, vol. 55, 5 (2016): 675-683]. ILC2 and Th2 cell population can be determined by flow cytometry (BD FACSVerse) following standard procedures known to those skilled in the art.

hIL17RA = target: T1, hIL17RA (Homo sapiens, UniProt Q96F46); assay: ELISA, SM17 specificity against IL-17 receptor subunits (IL17RA); format: binding; settings: 0.4 to 0.00064 μg/mL
T1 construct: purchased R&D systems
Experimental: A standard ELISA method was used to determine the specificity of SM17 against other human IL17 receptor subunits. Similarly, serially diluted SM17 at different concentrations (final concentrations at 0.4, 0.08, 0.016, 0.0032 and 0.00064 μg/m, respectively) was added to the wells of ELISA plates coated either with human IL-17 receptor subunits A, C, D and E (IL17RA, IL17RC, IL17RD, and IL17RE) (R&D systems).

IL-33 = target: T2, IL-33 (Homo sapiens, UniProt O95760); assay: Bio-Layer Interferometry (Octet), binding kinetics of bsBp to human IL-33
T2 construct: purchased R&D systems
T2 sequence (O95760 95-270): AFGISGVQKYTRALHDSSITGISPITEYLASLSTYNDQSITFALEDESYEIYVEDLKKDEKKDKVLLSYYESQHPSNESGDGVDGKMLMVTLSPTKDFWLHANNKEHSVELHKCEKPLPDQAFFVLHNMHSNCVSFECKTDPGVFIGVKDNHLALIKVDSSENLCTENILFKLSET
Experimental: The binding affinity of bsBp to the targeted alarmins was determined using a bio-Layer Interferometry analysis (Octet ReD96 system, Sartorius). bsBp or SM17 (20 μg/mL) was immobilized on biosensors via binding to anti-human Fab CH1 region; serially diluted human IL33 and TSLP (158.7 nM, 79.4 nM, 39.7 nM) (R&D systems) were added to plot the association and dissociation curve according to the manufacturer's specification. Biosensors immobilized with irrelevant antibody (SM03, anti-human CD22 chimeric IgG1 antibody, SinoMab BioScience Limited, 20 μg/mL) were used as control reference.

[2] = system: ILC2 population in human PBMC; assay: ILC2 cell population in human PBMC culture (flow cytometry); format: cell-based; design: key: −: no inhibition; +: weak; ++: moderate; +++: strong inhibition; settings: IL-2 (10 unit/mL) and three alarmins (10 ng/ml), 5 days
Source text: as §1

[3] = system: OVA-induced murine experimental asthma; assay: Ovalbumin induced asthma on mice; format: in vivo, BALB/c mice
Experimental: Female BALB/c mice were induced with ovalbumin to elicit asthma like symptoms on mice. Briefly, mice were each sensitized with […] of ovalbumin (OVA) emulsified in 1 mg of aluminum hydroxide in a total volume of […] via intraperitoneal (IP) injections on Days 0 and 12. Mice were divided into 6 groups with 8 mice per group. Sensitized mice were exposed to aerosolized 5% OVA in sterile water, 20 minutes/day for six consecutive days (Days 19, 20, 21, 22, 23 and 24). Naïve mice inhaled the atomized water, 20 minutes/day, for six consecutive days. Mice were then i.v. injected with different concentrations of SM17, PBS (control), or dexamethasone (Dex) 4 hours before aerosol challenge, once per day (Day 19 to 24).
On day 25 (24 hours after the last OVA challenge), mice were anesthetized with Telazol® (20-40 mg/kg i.p.) and connected to a computer-controlled ventilator via the tracheal cannula. The time of expiration/inspiration and the respiratory rate were preset at 1.5:1 and 90/min, respectively. After a steady baseline was established, the resistance of the lung (RL) was recorded to evaluate the reaction of mice to a methacholine chloride gradient (0.025 and 0.05 mg/kg body weight); the methacholine chloride was injected into the vena jugulars externa at 5-min intervals via a fine needle. […] BALF from mice sacrificed on Day 25 was retrieved, and inflammatory cell number and the concentrations of inflammatory cytokine from BALF were determined.
Results are presented as means±SEM. One Way ANOVA, Dunnett's Multiple Comparison Test, *: P<0.05; **: P<0.01. Dex=Dexamethasone.

IL-17RB = target: T3, IL-17RB (Homo sapiens, UniProt Q9NRM6); assay: ELISA, SM17 binding to coated IL-17RB protein (human); settings: two wells
T3 construct: purchased R&D systems
T3 sequence (Q9NRM6 18-502): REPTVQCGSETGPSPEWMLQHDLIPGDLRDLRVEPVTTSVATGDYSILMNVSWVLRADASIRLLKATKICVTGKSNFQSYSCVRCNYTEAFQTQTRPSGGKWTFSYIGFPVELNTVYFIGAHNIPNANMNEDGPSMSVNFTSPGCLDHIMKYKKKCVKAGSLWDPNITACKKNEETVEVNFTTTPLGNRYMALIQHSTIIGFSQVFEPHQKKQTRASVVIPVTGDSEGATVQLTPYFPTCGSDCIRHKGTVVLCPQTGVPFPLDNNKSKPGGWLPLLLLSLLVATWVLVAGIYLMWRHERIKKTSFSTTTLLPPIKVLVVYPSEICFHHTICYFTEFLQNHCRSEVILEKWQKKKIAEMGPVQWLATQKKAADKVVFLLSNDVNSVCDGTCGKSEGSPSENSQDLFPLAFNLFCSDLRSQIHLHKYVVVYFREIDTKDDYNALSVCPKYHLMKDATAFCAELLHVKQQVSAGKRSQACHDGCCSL
Experimental: A standard enzyme-linked immunosorbent assay (ELISA) method was used to determine the species specificity of SM17 against IL-17RB proteins. Briefly, IL-17RB proteins from human, mouse, cynomolgus or rhesus monkey (R&D systems, Minneapolis, MN) were diluted to 2.5 μg/ml in PBS and 50 μl of IL-17RB proteins were added to each well of ELISA strip. The strips were sealed with parafilm and incubated at 4° C. overnight for coating.
On the next day, strips were washed thrice with washing buffer (0.05% Tween 20 in PBS) and blocked with 100 μl per well with blocking buffer (3% BSA in PBS) for 2 hours RT before serially diluted SM17 (at a final concentration of 10, 2, 0.4, 0.08, 0.016, 0.0032, and 0.00064 μg/ml, respectively) was added.

SM17: humanized anti-IL17RB monoclonal antibody, human IgG4 isotype; HC SEQ ID NO: 32, LC SEQ ID NO: 33
Cell proliferation inhibition, Th2 [1]: +++ | binding of SM17 to IL17RA (in words) (hIL17RA): No obvious bindings | Kd (IL-33): 659 µM | Kdis (IL-33): 17.9 s⁻¹ | Ka (IL-33; bsBp or SM17 immobilized at 20 μg/mL): 27200 M⁻¹ s⁻¹ | Cell proliferation inhibition, ILC2 [2]: ++ | airway hyperresponsiveness (in words) ([3]; 1 mg/kg or 3 mg/kg SM17 before each OVA aerosolization): mild but not significant abrogation in AHR | airway hyperresponsiveness (in words) ([3]; 5 mg/kg SM17 i.v. once per day, Day 19 to 24, methacholine challenge day 25): prevented airway hyperresponsiveness | number of pulmonary infiltrated eosinophils (in words) ([3]; SM17 at 5 mg/kg): significantly reduce the number of pulmonary infiltrated eosinophils | IL-13 levels in BALF (in words) ([3]; SM17 at 5 mg/kg, Day 25): significantly reduced the IL-13 levels | eosinophil number in BALF (in words) ([3]; SM17 at 5 mg/kg, Day 25): significantly reduced | IL-5 levels in BALF (in words) ([3]; SM17 at 1, 3 and 5 mg/kg, Day 25): significantly reduced the IL-5 levels in BALF | OD 450 nm Absorption, human IL17RB (IL-17RB; SM17 0.016 μg/mL): 0.17 | OD 450 nm Absorption, human IL17RB (IL-17RB; SM17 0.08 μg/mL): 0.58 and 0.44 | OD 450 nm Absorption, human IL17RB (IL-17RB; SM17 0.4 μg/mL): 1.10 and 1.14 | OD 450 nm Absorption, human IL17RB (IL-17RB; SM17 2 μg/mL): 1.74 and 1.61 | OD 450 nm Absorption, human IL17RB (IL-17RB; SM17 10 μg/mL): 1.82 and 1.88
